B1: NRC3_wobSeed44_DR1_G10A_o1 (dsDNA)
DNA 1: GCTGAATGAAGTTAAAGATCAGGGAACGTGGCGTCGGCGATTGACAGCGTAGAATGAAGG
DNA 2: CCTTCATTCTACGCTGTCAATCGCCGACGCCACGTTCCCTGATCTTTAACTTCATTCAGC
B2: NRC3_wobSeed44_DR1_G10C_o1 (dsDNA)
DNA 1: GCTGAATGACGTTAAAGATCAGGGAACGTGGCGTCGGCGATTGACAGCGTAGAATGAAGG
DNA 2: CCTTCATTCTACGCTGTCAATCGCCGACGCCACGTTCCCTGATCTTTAACGTCATTCAGC
B3: NRC3_wobSeed27_DR1_G17T_o1 (dsDNA)
DNA 1: GCACTCGGAGGACAAATGTCAGAGCTACGCCAGTGAGCGATTGACAGCGTAGAATGAAGG
DNA 2: CCTTCATTCTACGCTGTCAATCGCTCACTGGCGTAGCTCTGACATTTGTCCTCCGAGTGC
B4: NRC3_wobSeed18_DR0_G9C_o1 (dsDNA)
DNA 1: GCGATACACGGTCAAGGCCAGAGTACGCGTATTGATGCGATTGACAGCGTAGAATGAAGG
DNA 2: CCTTCATTCTACGCTGTCAATCGCATCAATACGCGTACTCTGGCCTTGACCGTGTATCGC
B5: NRC3_random_hg19_365_o1 (dsDNA)
DNA 1: GCAGTAGACACAGGGTTTCACCGTGTTGGCCAGGATGCGATTGACAGCGTAGAATGAAGG
DNA 2: CCTTCATTCTACGCTGTCAATCGCATCCTGGCCAACACGGTGAAACCCTGTGTCTACTGC
B6: NRC3_random_hg19_301_o1 (dsDNA)
DNA 1: GCGAGAACAGACTAACACACACACACACACACACACGCGATTGACAGCGTAGAATGAAGG
DNA 2: CCTTCATTCTACGCTGTCAATCGCGTGTGTGTGTGTGTGTGTGTGTTAGTCTGTTCTCGC
B7: NRC3_wobSeed39_DR1_G10A_o1 (dsDNA)
DNA 1: GCCGAACTAAGTCAAAGGACAGTGAAAGGCGACGTAGCGATTGACAGCGTAGAATGAAGG
DNA 2: CCTTCATTCTACGCTGTCAATCGCTACGTCGCCTTTCACTGTCCTTTGACTTAGTTCGGC
B8: NRC3_wobSeed76_DR3_C22A_o1 (dsDNA)
DNA 1: GCCCTACTGGGCCAAAAAGGTAATTGATGCCGATAAGCGATTGACAGCGTAGAATGAAGG
DNA 2: CCTTCATTCTACGCTGTCAATCGCTTATCGGCATCAATTACCTTTTTGGCCCAGTAGGGC
B9: NRC3_random_hg19_498_o1 (dsDNA)
DNA 1: GCGACCACAGGTATAGTGTGCTGGACTATGTTCCAGGCGATTGACAGCGTAGAATGAAGG
DNA 2: CCTTCATTCTACGCTGTCAATCGCCTGGAACATAGTCCAGCACACTATACCTGTGGTCGC
B10: NRC3_wobSeed34_DR1_G10A_o1 (dsDNA)
DNA 1: GCATCGAAAAGTCGAAGGTGAGTATACCCACCCGAAGCGATTGACAGCGTAGAATGAAGG
DNA 2: CCTTCATTCTACGCTGTCAATCGCTTCGGGTGGGTATACTCACCTTCGACTTTTCGATGC
B11: NRC3_wobSeed58_DR2_A9T_o1 (dsDNA)
DNA 1: GCATCGAATGGTCGTGAGGTGAGTATACAGAAAGGCGCGATTGACAGCGTAGAATGAAGG
DNA 2: CCTTCATTCTACGCTGTCAATCGCGCCTTTCTGTATACTCACCTCACGACCATTCGATGC
B12: NRC3_random_hg19_236_o1 (dsDNA)
DNA 1: GCGCCTAGCACTTGTGTTGACCATTCATTCAGTGCTGCGATTGACAGCGTAGAATGAAGG
DNA 2: CCTTCATTCTACGCTGTCAATCGCAGCACTGAATGAATGGTCAACACAAGTGCTAGGCGC
B13: NRC3_wobSeed69_DR2_G10A_o1 (dsDNA)
DNA 1: GCAGTCAAAATTCACTAGGTAACGTAAGATTCAGCTGCGATTGACAGCGTAGAATGAAGG
DNA 2: CCTTCATTCTACGCTGTCAATCGCAGCTGAATCTTACGTTACCTAGTGAATTTTGACTGC
B14: NRC3_wobSeed82_DR3_A9C_o1 (dsDNA)
DNA 1: GCATCGAACGGTCGACGAGGTGAGTATACACCGTTTGCGATTGACAGCGTAGAATGAAGG
DNA 2: CCTTCATTCTACGCTGTCAATCGCAAACGGTGTATACTCACCTCGTCGACCGTTCGATGC
B15: NRC3_wobSeed100_DR4_A24C_o1 (dsDNA)
DNA 1: GCCCTACTGGGCCACGAAAGGTCCTTGATTCAGTGAGCGATTGACAGCGTAGAATGAAGG
DNA 2: CCTTCATTCTACGCTGTCAATCGCTCACTGAATCAAGGACCTTTCGTGGCCCAGTAGGGC
B16: NRC3_random_hg19_292_o1 (dsDNA)
DNA 1: GCCAAGACCCTAAGGAACCACTGTGTGGGATGTCAGGCGATTGACAGCGTAGAATGAAGG
DNA 2: CCTTCATTCTACGCTGTCAATCGCCTGACATCCCACACAGTGGTTCCTTAGGGTCTTGGC
B17: NRC3_wobSeed17_DR0_G16C_o1 (dsDNA)
DNA 1: GCATATGTAGGTTAGCGTCATTCAGAAAGTAGGGAAGCGATTGACAGCGTAGAATGAAGG
DNA 2: CCTTCATTCTACGCTGTCAATCGCTTCCCTACTTTCTGAATGACGCTAACCTACATATGC
B18: NRC3_random_hg19_2_o1 (dsDNA)
DNA 1: GCGTAACAAGAACAAGGCCATACTTTCATGCATCTAGCGATTGACAGCGTAGAATGAAGG
DNA 2: CCTTCATTCTACGCTGTCAATCGCTAGATGCATGAAAGTATGGCCTTGTTCTTGTTACGC
B19: NRC3_wobSeed30_DR1_C20G_o1 (dsDNA)
DNA 1: GCACTAGCAGGCCAAGGGTGACTCAAGATTAGTCCGGCGATTGACAGCGTAGAATGAAGG
DNA 2: CCTTCATTCTACGCTGTCAATCGCCGGACTAATCTTGAGTCACCCTTGGCCTGCTAGTGC
B20: NRC3_random_hg19_89_o1 (dsDNA)
DNA 1: GCCAAGATGAATCAGAAGCATGCCATCCGAATTCCAGCGATTGACAGCGTAGAATGAAGG
DNA 2: CCTTCATTCTACGCTGTCAATCGCTGGAATTCGGATGGCATGCTTCTGATTCATCTTGGC
B21: NRC3_random_hg19_160_o1 (dsDNA)
DNA 1: GCATCCCTGCAATGGCCTGCAAAGTTACAGGTTGCAGCGATTGACAGCGTAGAATGAAGG
DNA 2: CCTTCATTCTACGCTGTCAATCGCTGCAACCTGTAACTTTGCAGGCCATTGCAGGGATGC
B22: NRC3_wobSeed90_DR3_T12A_o1 (dsDNA)
DNA 1: GCCATACAGGGACAGCTAGGCCAGAGTAGGGACGGCGCGATTGACAGCGTAGAATGAAGG
DNA 2: CCTTCATTCTACGCTGTCAATCGCGCCGTCCCTACTCTGGCCTAGCTGTCCCTGTATGGC
B23: NRC3_random_hg19_240_o1 (dsDNA)
DNA 1: GCGACCATCTCCACACTGCACGATGATGAGATCCTGGCGATTGACAGCGTAGAATGAAGG
DNA 2: CCTTCATTCTACGCTGTCAATCGCCAGGATCTCATCATCGTGCAGTGTGGAGATGGTCGC

Chain of RXRa (P19793 whole entry): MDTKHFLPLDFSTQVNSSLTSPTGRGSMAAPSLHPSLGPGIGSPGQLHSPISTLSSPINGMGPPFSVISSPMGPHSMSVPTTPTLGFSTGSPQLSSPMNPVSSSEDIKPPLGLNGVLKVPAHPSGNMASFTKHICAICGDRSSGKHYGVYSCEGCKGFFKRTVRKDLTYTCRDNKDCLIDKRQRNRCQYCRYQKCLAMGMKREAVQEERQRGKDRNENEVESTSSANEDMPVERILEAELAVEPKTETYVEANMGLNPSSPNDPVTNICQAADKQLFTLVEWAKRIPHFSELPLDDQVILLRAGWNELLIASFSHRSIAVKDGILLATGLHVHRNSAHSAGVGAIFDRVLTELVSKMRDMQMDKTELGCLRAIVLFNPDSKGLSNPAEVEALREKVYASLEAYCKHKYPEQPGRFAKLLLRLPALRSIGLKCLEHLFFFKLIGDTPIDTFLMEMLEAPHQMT

The data set has as its target RXRa (Homo sapiens, UniProt P19793). In words: no ligand; PBM; 180 nM; PBS pH 7.4, 2% milk, 0.02% Triton X-100, 1 mM DTT, BSA, 0.4 mg/ml salmon testes DNA. To be noted: tags: His cleaved; chain copies: 2; label: surface-attached array probe.
As for B1, the binding signal was 0.44 PBM z-score against 500 random probes.
To B2 belongs 0.4 PBM z-score against 500 random probes; to B3, 0.08 PBM z-score against 500 random probes.
On to B4, for which the binding signal is 0.39 PBM z-score against 500 random probes.
On to B5, for which the binding signal was 0.03 PBM z-score against 500 random probes.
The figure for B6 is 0.4 PBM z-score against 500 random probes; for B7 it is 0.22 PBM z-score against 500 random probes; for B8 it is 0.01 PBM z-score against 500 random probes.
The figure for B9 is -0.31 PBM z-score against 500 random probes; for B10 it is 0.45 PBM z-score against 500 random probes; for B11 it is 0.34 PBM z-score against 500 random probes.
For the molecule B12, the binding signal was -0.35 PBM z-score against 500 random probes.
To B13 belongs 0.46 PBM z-score against 500 random probes; to B14, 0.44 PBM z-score against 500 random probes; to B15, 0.26 PBM z-score against 500 random probes.
The figure for B16 is 0.44 PBM z-score against 500 random probes; for B17 it is 0.46 PBM z-score against 500 random probes.
Turning to B18, the binding signal was 0.08 PBM z-score against 500 random probes.
Regarding B19, the binding signal is 0.36 PBM z-score against 500 random probes.
The figure for B20 is -0 PBM z-score against 500 random probes.
The figure for B21 is -0.41 PBM z-score against 500 random probes; for B22 it is 0.2 PBM z-score against 500 random probes; for B23 it is 0.1 PBM z-score against 500 random probes.

Values taken from PMC6555819, “Comprehensive study of nuclear receptor DNA binding provides a revised framework for understanding receptor specificity”.
